Reference: patent US20160194388A1 (WASHINGTON UNIVERSITY, published 2016)

What was measured:
[1] = target: T1, peptide comprising amino acids 145-162 of 14-3-3 epsilon SV (human); experiment: ELISA, peptide coated, 7D4 at 5 µg/ml
T1 construct: Synthetic 18-mer (Sigma), coated on the ELISA plate
T1 peptide: HPIRLGLALNFSVFYYEI
Method: (§1) Two batches of purified anti 14-3-3 epsilon monoclonal antibody 7D4 were used for testing all 31 peptides by ELISA. Three concentrations of each peptide had been used for coating ELISA plate at 30, 15, 10 μg/mL, 50 μl/each well were reacted against diluted purified antibodies at same concentration in all assay. Similar results were obtained for each peptide concentration coated on the ELISA plate.
(§2) Human 14-3-3 Protein epsilon and its isoform SV whole amino acid sequences were obtained through UniProtKB/Swiss-Prot. The Taxonomic identifier 9606 (NCBI) organism is Homosapiens (Human), Gene name is YWHAE. Peptide designed from whole sequences of 14-3-3 protein epsilon and its isoform 14-3-3 protein epsilon SV. The designed peptides contain 18AA from N terminal to C terminal and had 2AA overlapped in each peptide. A total of 31 peptides synthesized by Sigma. The synthesized peptide was prepared in DMSO and then further diluted in PBS for coating an ELISA plate. 30 μg/ml and 10 μg/ml of peptides in PBS were coated on ELISA plates, 50 μL/well. The plates incubated overnight at 4° C., were washed with 0.1% Tween20 PBS and blocked with 3% BSA in same buffer for 1 hour. […] After washing again, substrate ABTS was added to each well to monitor color change by reading at 405 nm in an ELISA reader (Bio-Tek Instrument Inc.). […]

[2] = target: T2, peptide comprising amino acids 177-194 of 14-3-3 epsilon isoform 1 (human); experiment: ELISA, peptide coated, 7D4 at 5 µg/ml
T2 construct: Synthetic 18-mer (Sigma), coated on the ELISA plate
T2 peptide: FSVFYYEILNSPDRACRL
Method: as §1, §2

[3] = target: T3, human 14-3-3 epsilon isoform 1 (human, UniProt P62258 1-255); experiment: flow cytometry on H23 cells
T3 construct: Endogenous protein of H23 human lung cancer cells; Mass spectrometry of the about 27 kDa band identified it as 14-3-3 epsilon, 255 amino acids; also called 14-3-3 protein epsilon; YWHAE
T3 sequence: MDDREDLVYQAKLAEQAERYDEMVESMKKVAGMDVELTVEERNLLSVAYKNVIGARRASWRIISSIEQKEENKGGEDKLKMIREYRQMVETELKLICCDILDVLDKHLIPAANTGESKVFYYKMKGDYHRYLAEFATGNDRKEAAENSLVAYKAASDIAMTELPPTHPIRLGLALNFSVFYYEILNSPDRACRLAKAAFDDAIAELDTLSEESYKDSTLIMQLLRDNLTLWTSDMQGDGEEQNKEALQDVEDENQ
Method: H23 cells were treated with radiation, 3Gy×3 or 0Gy sham. Cells were then treated with blocking buffer followed by the addition of the 7D4 anti-14-3-3 epsilon monoclonal antibody. Cells were then washed and stained with the secondary antibody conjugated to the fluorescent marker Alexa Fluor 488. Commercial rabbit anti-human 14-3-3 epsilon antibody was used as positive control. Negative controls included 7D4 without secondary antibody and normal mouse IgG with secondary antibody. Shown in FIG. 5 is the percentage of cells staining positive with the anti-14-3-3 antibodies as measured by flow cytometry (FACS).

[4] = target: T3, human 14-3-3 epsilon isoform 1; experiment: FMAT on H23 cells, hybridoma supernatant

B1: anti-14-3-3 epsilon mouse monoclonal antibody 7D4 (antibody, V domains shown)
VH: QVQLQQSGAELMKPGASVKISCKATGYTFSSYWIEWVKQRPGHGLEWIGEILPGSGSTNYNEKFKGKATFTADTSSNTAYMQLSSLTSEDSAVYYCARSVWLRRDFAYWGQGTLVTVSA
VL: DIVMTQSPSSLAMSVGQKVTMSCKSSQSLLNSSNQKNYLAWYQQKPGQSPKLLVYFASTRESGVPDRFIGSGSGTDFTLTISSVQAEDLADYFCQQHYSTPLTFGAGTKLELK
notes: also called McAb 7D4; 7D4 mAb
- binding result [1]: binds
- binding result [2]: binds
- fold increase in the percentage of cells staining positive after 3Gy×3 [3]: 20 fold
- fold increase in binding on 3Gy×3 treated against sham 0Gy treated tumor cells [4]: 6 fold
